According to CN103319600A (MILITARY MEDICINE INST OF NANJING MILITARY REGION, dated 2013):

Biological target: T1, 阴性对照蛋白BSA (UniProt P02769 25-607)
T1 construct: Negative control protein
Experiment: ELISA

T1 sequence (P02769 25-607 limits assumed): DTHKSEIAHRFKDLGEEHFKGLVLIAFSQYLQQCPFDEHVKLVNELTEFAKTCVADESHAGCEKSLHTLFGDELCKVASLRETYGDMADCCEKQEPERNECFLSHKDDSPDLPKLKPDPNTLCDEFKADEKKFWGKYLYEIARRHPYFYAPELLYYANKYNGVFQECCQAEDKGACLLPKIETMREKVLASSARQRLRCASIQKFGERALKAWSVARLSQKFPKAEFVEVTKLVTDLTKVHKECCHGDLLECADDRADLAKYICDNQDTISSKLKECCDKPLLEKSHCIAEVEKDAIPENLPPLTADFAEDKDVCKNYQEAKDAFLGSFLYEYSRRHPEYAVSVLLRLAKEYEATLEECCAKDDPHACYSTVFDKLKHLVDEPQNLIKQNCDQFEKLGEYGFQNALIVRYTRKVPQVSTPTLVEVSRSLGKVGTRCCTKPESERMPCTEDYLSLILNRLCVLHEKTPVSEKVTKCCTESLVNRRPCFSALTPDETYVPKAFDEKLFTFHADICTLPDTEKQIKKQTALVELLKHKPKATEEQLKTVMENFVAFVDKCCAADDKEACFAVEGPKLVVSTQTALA

B1: 人源抗TLR4抗体Fab (Fab, V domains shown)
VH: EVQLVESGGGLVKPGRSLRLSCAASGFTFSSYAMHWVRQAPGKGLEWVAVISYDGSNKYYADSVKGRFTISRDNSENTLYLQMNSLRAEDTAVYYCAAYSSSSWFDPWGQGTLVTVSP
VL: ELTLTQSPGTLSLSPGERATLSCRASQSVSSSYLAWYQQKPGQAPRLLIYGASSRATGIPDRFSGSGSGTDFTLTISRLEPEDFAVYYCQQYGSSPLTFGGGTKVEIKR
notes: also called 抗TLR4基因工程抗体Fab; 抗TLR4的Fab
  binding result: no binding
